Laboratory results from patent US20190211400A1.

Target: death receptor (DR) 3 on mouse mucosal CD4+ T cells (mouse)
Experiment: cell-based or functional assay

In the case of “TL1A added to mouse MLN and LP mononuclear cell cultures (from UniProt Q5UBV8 76-252) (ligand)”, the numbers of IFN-gamma producing CD4+ cells (intracellular staining of LPMC, without vs. with TL1A) is reported as 1 and the numbers of IL-17-producing CD4+ cells (intracellular staining of LPMC, without vs. with TL1A) is reported as 0.89.
